“Also recorded” adds a separate entry of the source.
How the values were obtained:
[1] = test system: middle cerebral artery occlusion (MCAO) in rats; assay: 90 min middle cerebral artery occlusion with r-TPA 10 mg/kg infusion; brains dissected 4.5 h after reperfusion (Example 2); format: in vivo, rat
Method: Rats were given 10 mg/kg of r-TPA, which is considered equivalent to the typical dose given to humans in thrombolysis in stroke and myocardial infarction. Two timings of r-TPA were used to investigate in rat brain the hemorrhagic conversion of infarction, the single most serious complication and hazard in clinical thrombolytic therapy. The group termed r-TPA+saline received 1-hour infusiuon of r-TPA starting 5 minutes (10% as bolus) prior to reperfusion after 90 min of middle cerebral artery occlusion (MCAO), whereas the group saline+r-TPA received r-TPA starting 1 hour after the reperfusion after 90 min of MCAO. […] Brains were dissected at 4.5 hours after reperfusion. Areas of hemorrhage were measured by microscopical image analysis on six histological sections cut through the hemispheres and added together (cf. FIG. 3)
The polymorphonuclear leukocytes (neutrophils, shown in bars, left Y-axis, of FIG. 4) were calculated on the section encompassing the basal ganglia, infarct core and penumbra.
They were also treated with 10 mg/kg of r-TPA in a 1-hour infusion starting […] (10% as bolus) before reperfusion, a dose equivalent to that used clinically in thrombolysis of human stroke and myocardial infarction. Brains were dissected at 4.5 hours after reperfusion. The amount of brain edema was measured by quantitating the areas of hemispheres on histological sections with microscopical image analysis.
In the lower panel, the total area of hemorrhagic conversion was quantitated in six sections cut through the hemispheres.

[2] = test system: spontaneous intraventricular bleedings; details: in vivo; cited from earlier work
[3] = test system: rat peritoneal mast cells; assay: Degranulation of rat peritoneal mast cells ex vivo; format: cell-based

Substance: r-TPA: alteplase (recombinant tissue plasminogen activator), a serine protease leading to plasmin formation
- neutrophil density ([1]; both r-TPA groups compared to sham-operated rats): significantly increased
- hemorrhage formation in rat brain ([1]; r-TPA 10 mg/kg, started 5 min before or 1 hour after reperfusion, vs sham operated or saline-treated controls): substantial hemorrhage formation; also recorded: significant hemorrhage formation
- increase in total number of neutrophils in the tissue, ischemic hemisphere ([1]; r-TPA infusion): up to 3 fold
- increase in total number of neutrophils in the tissue, non-infarcted hemisphere ([1]; r-TPA infusion): up to 5 fold
- degranulation of cells consistent with mast cell morphology, non-ischemic hemisphere ([1]; r-TPA infusion 5 minutes before reperfusion, 90 minute ischemia): up to 60%
- degranulation of cells consistent with mast cell morphology, ischemic hemisphere ([1]; r-TPA infusion 5 minutes before reperfusion, 90 minute ischemia, up to 50% without r-TPA): up to 70%
- rates of secondary brain hemorrhages [2]: more than doubles
- degranulation of rat peritoneal mast cells [3]: degranulated

From patent publication US8163734B2, “Use of a mast cell activation or degranulation blocking agent in the manufacture of a medicament for the treatment of a patient subjected to thrombolyses” (priority 2004, dated 2012)
